Test results as given in patent US20160051694A1 (AGENSYS, published 2016).

Experiments:
[1] = target: T1, CD37 (Leukocyte Antigen CD37, Tetraspanin-26) on cells (human, UniProt P11049 1-281); experiment: FACS, Mino XCL cells (MCL, in-vivo xenograft); ratio to isotype control
T1 construct: In the assays it is the endogenous CD37 of human cancer cell lines, of AML patient PBMC and of patient tumor sections, or CD37 on recombinant 293T cells; also called CD37 antigen; CD37 expressing cells
T1 sequence: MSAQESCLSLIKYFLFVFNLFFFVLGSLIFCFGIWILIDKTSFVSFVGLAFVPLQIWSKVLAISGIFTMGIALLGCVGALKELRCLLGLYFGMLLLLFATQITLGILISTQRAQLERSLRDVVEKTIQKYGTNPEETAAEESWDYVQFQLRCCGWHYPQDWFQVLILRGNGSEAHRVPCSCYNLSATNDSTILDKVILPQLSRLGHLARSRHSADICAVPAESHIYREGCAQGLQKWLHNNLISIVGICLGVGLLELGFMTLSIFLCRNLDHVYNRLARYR

[2] = target: T1, CD37 (Leukocyte Antigen CD37, …); experiment: FACS, Kasumi-1 cells (AML); ratio to isotype control
Description: (§1) To express HvCD37-6b15.1.1 MAb recombinantly in transfected cells, HvCD37-6b15.1.1 MAb variable heavy and light chain sequences were cloned upstream of the human heavy chain IgG2 and human light chain Igκ constant regions respectively. The complete HvCD37-6b15.1.1 MAb human heavy chain and light chain cassettes were cloned downstream of the CMV promoter/enhancer in a cloning vector. A polyadenylation site was included downstream of the MAb coding sequence. The recombinant HvCD37-6b15.1.1 MAb expressing construct was transfected into CHO cells. The HvCD37-6b15.1.1 MAb secreted from recombinant cells was evaluated for binding to human cancer cell lines expressing CD37 by FACS (See, Table VI). Binding was detected by flow cytometry.
(§2) HvCD37-6b15.1.1 was tested for binding to different NHL, CLL and AML cell lines (See, Table VI) grown in-vitro. HvCD37-6b15.1.1 and an Isotype matched control antibody were biotinylated using NHS LC biotin. In vitro cancer lines growing exponentially were used for all experiments. […] After washing un-bound secondary antibody, cells were analyzed by FACS, a total of 10,000 events were collected per sample. Data files were analyzed using FlowJo and Geometric Mean Fluorescence was determined and reported. Fluorescense ratio was calculated as follows: Geo mean AGS67C/Geo Mean Isotype control=MFR, a measure of fold expression above Isotype control.

[3] = target: T1, CD37 (Leukocyte Antigen CD37, …); experiment: FACS, JVM-3 cells (CLL); ratio to isotype control
Procedure: (§3) HvCD37-6b15.1.1 was tested for binding to different NHL, CLL and AML cell lines (See, Table VI) grown in-vitro. HvCD37-6b15.1.1 and an Isotype matched control antibody were biotinylated using NHS LC biotin. In vitro cancer lines growing exponentially were used for all experiments. Briefly, cells were harvested by and washed by centrifugation. Antibodies were diluted to 5 μg/mL final concentration and co-incubated with cells at 4° C. for 1 hour. At the end of the incubation, cells were washed and incubated with secondary detection Streptavidin-PE antibody at a final 1:400 (1.25 μg/mL) dilution for 1 hr at 4° C. After washing un-bound secondary antibody, cells were analyzed by FACS, a total of 10,000 events were collected per sample. Data files were analyzed using FlowJo and Geometric Mean Fluorescence was determined and reported. Fluorescense ratio was calculated as follows: Geo mean AGS67C/Geo Mean Isotype control=MFR, a measure of fold expression above Isotype control.

[4] = target: T1, CD37 (Leukocyte Antigen CD37, …); experiment: FACS, REC-1 cells (MCL); ratio to isotype control
Description: as §1, §2

[5] = target: T1, CD37 (Leukocyte Antigen CD37, …); experiment: FACS, MV-4-11 cells (AML); ratio to isotype control
Procedure: as §3

[6] = target: T1, CD37 (Leukocyte Antigen CD37, …); experiment: FACS, DOHH-2 cells (Follicular); ratio to isotype control
Description: as §1, §2

[7] = target: T1, CD37 (Leukocyte Antigen CD37, …); experiment: FACS, BDCM cells (AML); ratio to isotype control
Procedure: as §3

[8] = target: T1, CD37 (Leukocyte Antigen CD37, …); experiment: FACS, MOLM-13 cells (AML); ratio to isotype control
Procedure: as §3

[9] = target: T1, CD37 (Leukocyte Antigen CD37, …); experiment: FACS, RS4-11 cells (ALL); ratio to isotype control
Description: as §1, §2

[10] = target: T1, CD37 (Leukocyte Antigen CD37, …); experiment: FACS, MOLT-4 cells (ALL); ratio to isotype control
Procedure: as §3

[11] = target: T1, CD37 (Leukocyte Antigen CD37, …); experiment: FACS, WSU-DLCL-2 cells (DLBCL); ratio to isotype control
Description: as §1, §2

[12] = target: T1, CD37 (Leukocyte Antigen CD37, …); experiment: FACS, Hel 92.1 cells (AML); ratio to secondary detection (high isotype background)
Procedure: as §3, with “Fluorescense ratio was calculated as follows: Geo mean AGS67C/Geo Mean Isotype control=MFR, a measure of fold expression above Isotype control.” left out

[13] = target: T1, CD37 (Leukocyte Antigen CD37, …); experiment: FACS, KG-1 cells (AML); ratio to secondary detection (high isotype background)
Description: as §1
as §3, with “At the end of the incubation, cells were washed and incubated with secondary detection Streptavidin-PE antibody at a final 1:400 (1.25 μg/mL) dilution for 1 hr at 4° C.” left out, “Fluorescense ratio was calculated as follows: Geo mean AGS67C/Geo Mean Isotype control=MFR, a measure of fold expression above Isotype control.” left out

[14] = target: T1, CD37 (Leukocyte Antigen CD37, …); experiment: FACS, HL-60 cells (AML); ratio to isotype control
Description: as §1, §2

[15] = target: T1, CD37 (Leukocyte Antigen CD37, …); experiment: FACS, Ramos RR XCL cells (Burkitt's, rituxan resistant); ratio to isotype control
Procedure: as §3

[16] = target: T1, CD37 (Leukocyte Antigen CD37, …); experiment: FACS, Raji cells (Burkitt's); ratio to isotype control
Procedure: as §3

[17] = target: T1, CD37 (Leukocyte Antigen CD37, …); experiment: FACS, Mino cells (MCL); ratio to isotype control
Procedure: as §3

[18] = target: T1, CD37 (Leukocyte Antigen CD37, …); experiment: FACS, Ramos cells (Burkitt's); ratio to isotype control
Description: as §1, §2

[19] = target: T1, CD37 (Leukocyte Antigen CD37, …); experiment: FACS, Granta-519 cells (MCL); ratio to secondary detection (high isotype background)
Description: as §1
as §3, with “At the end of the incubation, cells were washed and incubated with secondary detection Streptavidin-PE antibody at a final 1:400 (1.25 μg/mL) dilution for 1 hr at 4° C.” left out, “Fluorescense ratio was calculated as follows: Geo mean AGS67C/Geo Mean Isotype control=MFR, a measure of fold expression above Isotype control.” left out

[20] = target: T1, CD37 (Leukocyte Antigen CD37, …); experiment: FACS, EoL-1 cells (AML); ratio to isotype control
Procedure: as §3

[21] = target: T1, CD37 (Leukocyte Antigen CD37, …); experiment: FACS, THP-1 cells (AML); ratio to isotype control
Description: as §1, §2

[22] = target: T1, CD37 (Leukocyte Antigen CD37, …); experiment: FACS, SU-DHL-4 cells (DLBCL); ratio to isotype control
Procedure: as §3

[23] = target: T1, CD37 (Leukocyte Antigen CD37, …); experiment: FACS, Daudi cells (Burkitt's); ratio to isotype control
Description: as §1, §2

[24] = target: T1, CD37 (Leukocyte Antigen CD37, …); experiment: FACS on cells expressing CD37

B1: HvCD37-6b15.1.1 MAb (recombinant, expressed in CHO cells, human IgG2 / kappa) (antibody, V domains shown)
VH: QVQLQQWGAGLLKPSETLSLTCAVYGGSFSPYYWSWIRQPPGKGLEWIGEINHSGSTNYNPSLKSRVTISVDTSKNQFSLKLSSVTAADTAVYYCARRAGDFDYWGQGTLVTVSS
VL: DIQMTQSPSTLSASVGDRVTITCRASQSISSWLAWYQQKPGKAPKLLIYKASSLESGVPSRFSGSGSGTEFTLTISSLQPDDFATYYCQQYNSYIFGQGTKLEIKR
modifications: typical heavy chain of purified CHO material: N-terminal glutamine modified to pyroglutamate and C-terminal lysine deleted; biotinylated with NHS LC biotin for the FACS assays
notes: Fully human antibody: human variable regions on human IgG2 and human kappa constant regions, made in CHO cells (ATCC PTA-120464); also called HvCD37-6b15.1.1 IgG2; AGS67C
**Q.** What does the source list for B1?
**A.** MFR (Mean Florescence ratio) [1]: 316; MFR (Mean Florescence ratio) [2]: 9; MFR (Mean Florescence ratio) [3]: 122; MFR (Mean Florescence ratio) [4]: 341; MFR (Mean Florescence ratio) [5]: 8; MFR (Mean Florescence ratio) [6]: 581; MFR (Mean Florescence ratio) [7]: 64; MFR (Mean Florescence ratio) [8]: 6; MFR (Mean Florescence ratio) [9]: 26; MFR (Mean Florescence ratio) [10]: 3; MFR (Mean Florescence ratio) [11]: 554; MFR (Mean Florescence ratio) [12]: 28; MFR (Mean Florescence ratio) [13]: 10; MFR (Mean Florescence ratio) [14]: 5; MFR (Mean Florescence ratio) [15]: 140; MFR (Mean Florescence ratio) [16]: 135; MFR (Mean Florescence ratio) [17]: 301; MFR (Mean Florescence ratio) [18]: 534; MFR (Mean Florescence ratio) [19]: 372; MFR (Mean Florescence ratio) [20]: 3; MFR (Mean Florescence ratio) [21]: 23; MFR (Mean Florescence ratio) [22]: 662; MFR (Mean Florescence ratio) [23]: 39

B2: HvCD37-6b15.1.1 MAb purified from hybridoma (VelocImmune mouse) (antibody, V domains shown)
VH: QVQLQQWGAGLLKPSETLSLTCAVYGGSFSPYYWSWIRQPPGKGLEWIGEINHSGSTNYNPSLKSRVTISVDTSKNQFSLKLSSVTAADTAVYYCARRAGDFDYWGQGTLVTVSS
VL: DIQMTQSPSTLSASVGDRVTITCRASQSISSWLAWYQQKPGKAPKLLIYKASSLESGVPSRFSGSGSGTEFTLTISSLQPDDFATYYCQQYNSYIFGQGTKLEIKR
notes: also called HvCD37-6b15.1.1 purified from hybridoma; MAb material derived from hybridoma cells
**Q.** Does B2 bind [24]?
**A.** binds
